# Measurements taken from patent US12698494.
# Where a chain is given by its changes, count along the chain named. In names and notes the source's numbering stands.
# T1: FRETS-VWF73 fluorogenic substrate, P04275
# T1 chain: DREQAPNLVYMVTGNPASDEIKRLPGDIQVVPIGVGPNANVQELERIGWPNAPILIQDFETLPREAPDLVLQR
# B1: ADAMTS13 variant NGLY3 plus L591A/R636A/L637A/L668A (protein)
# chain: AAGGILHLELLVAVGPDVFQAHQEDTERYVLTNLNIGAELLRDPSLGAQFRVHLVKMVILTEPEGAPNITANLTSSLLSVCGWSQTINPEDDTDPGHADLVLYITRFDLELPDGNRQVRGVTQLGGACSPTWSCLITEDTGFDLGVTIAHEIGHSFGLEHDGAPGSGCGPSGHVMASDGAAPRAGLAWSPCSRRQLLSLLSAGRARCVWDPPRPQPGSAGHPPDAQPGLYYSANEQCRVAFGPKAVACTFAREHLDMCQALSCHTDPLDQSSCSRLLVPLLDGTECGVEKWCSKGRCRSLVELTPIAAVHGRWSSWGPRSPCSRSCGGGVVTRRRQCNNPRPAFGGRACVGADLQAEMCNTQACEKTQLEFMSQQCARTDGQPLRSSPGGASFYHWGAAVPHSQGDALCRHMCRAIGESFIMKRGDSFLDGTRCMPSGPREDGTLSLCVSGSCRTFGCDGRMDSQQVWDRCQVCGGDNSTCSPRKGSFTAGRAREYVTFLTVTPNLTSVYIANHRPAFTHLAVRIGGRYVVAGNMSISPNTTYPSLLEDGRVEYRVALTEDAAPRLEEIRIWGPLQEDADIQVYRRYGEEYGNATRPDITFTYFQPKPRQAWVWAAVRGPCSVSCGAGLRWVNYSCLDQARKELVETVQCQGSQQPPAWPEACVLEPCPPYWAVGDFGPCSASCGGGLRERPVRCVEAQGSLLKTLPPARCRAGAQQPAVALETCNPQPCPARWEVSEPSSCTSAGGAGLALENETCVPGADGLEAPVTEGPGSVDEKLPAPEPCVGMSCPPGWGHLDATSAGEKAPSPWGSIRTGAQAAHVWTPAAGSCSVSCGRGLMELRFLCMDSALRVPVQEELCGLASKPGSRREVCQAVPCPARWQYKLAACSVSCGRGVVRRILYCARAHGEDDGEEILLDTQCQGLPRPEPQEACSLEPCPPRWKVMSLGPCSASCGLGTARRSVACVQLDQGQDVEVDEAACAALVRPEASVPCLIADCTYRWHVGTWMECSVSCGDGIQRRRDTCLGPQAQAPVPADFCQHLPKPVTVRGCWAGPCVGQGTPSLVPHEEAAAPGRTTATPAGASLEWSQARGLLFSPAPQPRRLLPGPQENSVQSSACGRQHLEPTGTIDMRGPGQADCAVAIGRPLGEVVTLRVLESSLNCSAGDMLLLWGRLTWRKMCRKLLDMTFSSKTNTLVVRQRCGRPGGGVLLRYGSQLAPETFYRECDMQLFGPWGEIVSPSLSPATSNAGGCRLFINVAPHARIAIHALATNMGAGTEGANASYILIRDTHSLRTTAFHGQQVLYWESESSQAEMEFSEGFLKAQASLRGQYWTLQSWVPEMQDPQSWKGKEGT
# B2: ADAMTS13 variant NGLY3 + R568A/Y665A (protein)
# chain: B1 chain with R494A, A517L, A562R, A563L, Y591A, A594L
# B3: ADAMTS13 variant L591A/R636A/L637A/L668A (protein)
# chain: B1 chain with N534K
# B4: ADAMTS13 variant R568A/Y665A (protein)
# chain: B1 chain with R494A, A517L, N534K, A562R, A563L, Y591A, A594L
# Molecular target: Von Willebrand Factor (VWF) multimers, P04275
Protein,Ability to process VWF multimers under denaturing conditions,vortex assay: processing of VWF multimers under shear stress
B1,++,Combinations of NGLY3 plus L591A/R636A/L637A/L668A and NGLY3 plus R568A/Y665A efficiently processed VWF multimers
B2,++,Combinations of NGLY3 plus L591A/R636A/L637A/L668A and NGLY3 plus R568A/Y665A efficiently processed VWF multimers
B3,++,the proteolytic activity of R568A/Y665A and the L591A/R636A/L637A/L668A variants were reduced when compared to wild type ADAMTS13
B4,++,the proteolytic activity of R568A/Y665A and the L591A/R636A/L637A/L668A variants were reduced when compared to wild type ADAMTS13

# Molecular target: T1, FRETS-VWF73 fluorogenic substrate, …
row,Protein,Activity level (% relative to wild type ADAMTS13) VWFFRETS73 (% relative to wild type ADAMTS13)
1,B1,95
2,B2,120
3,B3,90
4,B4,120
